Experimental data reported in the DeepSol protein solubility set.

Experiment: soluble on expression in E. coli; label from the status in PepcDB or PDB records

Q: Which “soluble on expression in E. coli” value does the source give for “MSLKPNIQFEITGASRILPASGPITNLEILKNFPRTADKSQGFLEKFAEKIGEEFGFHTRYWCHKPWESLDNSRELSSESLAMQAVDKLITHSMSKDVDAFLLGSTTNKRFTGSQAAAVLGNLKLNAPAYDLKTGCSTSLSTLHFAYALMALGYQKILVCCSETLSKVIDPENEKTWIGLADGAASLLLEKSKEGSFTIEKSFFSTDGQYVNAFTTQGVFPPTHEQIDSVGYHLVGDETLMKELAYSRYMQMLDHLLPTEKEKNEITWVIPHQVNRKLIDQVLHENNLNNKIIIWDADTIGNIGGASVLYTLARAVEEKLFDRSGKILLMSVGGGLSYAGQVLNYQEGHHHHHH” here?
A: Its value is “soluble”.

Q: Which “soluble on expression in E. coli” value does the source give for “MSAETATIPEVSNQETKAEKVIADSLEAKKDESAAVEINGSSTHENGDTNIEKKTEEPVVEAKVSEEPATTSETPAAQVTESQKDEKTDDAPAEPAEVAVEAAKEEPVVEEKKEDAPEPVVTEEKKSEEAPAPEEKKSEEVVAAEEKKEPAAVVEEKKEVPETPVVEDKKEEAPASSEEKKDEPVVNTEEKKDAAEAPAADEESEAAEEKVAETTVAPVATPSGRGRGRGRGRPPGPNATPKAAASEKKRAAKPKAAVNPESIAASRPRRSTSNRIDYANSDTSTVLAEVDDEIPGKLFRGRKPPRGKITKYVSDSDGAPSDEDDVDFGKKKKGAPSTRGRGRPPSSNRPTRAAATKRSAKDASDESNEDEIEYDDKSDEDVSPRKKARGAPARAAADDEDDEGEEMDASEEVEA” here?
A: Its value is “not soluble”.

Q: Which “soluble on expression in E. coli” value does the source give for “MGSDKIHHHHHHMKSVTVADLKADPIVQGYIEVGNRNLAAIGFTEHGLRHVGLVSNIAYNILEKLGYSERECELAAVAAYLHDIGNVINRSGHAQTGALLSAHILERHAMAPEEIAIVIGAIGNHDESDGNPVSNISAALILADKSDVHRSRVRNQDPATFDIHDRVNYAVEHSFLRVYPKDRVALEITINTEICPVMDYFEIFLARMLLCRRAASFLDTVFELKINEVKLL” here?
A: The value was “not soluble”.

Q: For “MGIGNENKGFITASADALINWVRTGSLWPVTTGLACCAVEMMHAGAARYDLDRFGIVFRPSPRQSDVLIVAGTLCNKMAPALRQVYDQMPDPKWVISMGSCANGGGYYHYSYSVVRGCDRIVPVDIYVPGCPPTAEALVYGIIQLQNKIIRKDTIARK”, which “soluble on expression in E. coli” value is on record?
A: The value was “not soluble”.

Q: Which “soluble on expression in E. coli” value does the source give for “MDSDPLGVFPNSPKYHPYYSQTTEFGGVIDLGLSLRTIQHEIYHSSGQIMTCGKGYCSNEGYRRKWGYVKVTMDGLVVGRKVCVLDHGSYSTLAHQLEDMFGMQSVSGLRLFQMESEFCLVYRDEEGLWRNAGDVPWNEFIESVERLRITRRNDAVLPF” here?
A: The value was “not soluble”.

Q: With “MGSDKIHHHHHHMRPDMFIGSYERSGGHGLYPAWLDSLGAISLGPPDTRIGNASFGLLDHRCGTAWFVEEQEPGAVSAWQWDDQVWTPLGRIGTGGASPCHLVRSPDGTLLAVANNDGGVAALVELDPETGALGKLAGVLRNEGGARSHAGCVRFAGDRIFIADRGLDRVLSCEYGAAGFGEVRTAFAAPRGSGPRQLLLRDDLALLACELTARLMLLRATGEGFELLDDIATDAAATPGNLAGHLAFQGDRIFVSNRGADTVASFRIDGERLRREDCWSSHGRSPRHFAMCGSYLVVTNEQDGIVCVLDIANGGRIAGTAIVPGAAFVLAMPL” as the sequence, how does the “soluble on expression in E. coli” value read?
A: The value was “not soluble”.

Q: Which “soluble on expression in E. coli” value does the source give for “PVLTQTSEQAPSSAPRDVQARMLSSTTILVQWKEPEEPNGQIQGYRVYYTMDPTQHVNNWMKHNVADSQITTIGNLVPQKTYSVKVLAFTSIGDGPLSSDIQVITQTG” here?
A: Its value is “soluble”.

Q: For “MAYPGHPGAGGGYYPGGYGGAPGGPAFPGQTQDPLYGYFAAVAGQDGQIDADELQRCLTQSGIAGGYKPFNLETCRLMVSMLDRDMSGTMGFNEFKELWAVLNGWRQHFISLDTDRSGTVDPQELQKALTTMGFRLSPQAVNSIAKRYSTNGKITFDDYIACCVKLRALTDSFRRRDTAQQGVVNFPYDDFIQCVMSV”, which “soluble on expression in E. coli” value is on record?
A: The value was “soluble”.

Q: Which “soluble on expression in E. coli” value does the source give for “MRITIAGKIGSGKSTVSSELSRITGYTVYSSGTFFRETARKMNMSIEDFNVYSESHPEADYYTDETQKAFMQANDNIIVEGRLAGWISYLNGINAFRIFLYATYYTRLVRFAGRENIDIDSARDLMEKREKSEKERYRKLYGIDVDDLSIYDIVVNTEFMKPPEIAVYIANRIDEMSRKDIFTPRILR” here?
A: The value was “not soluble”.

Q: For “GPGSMAGWASLGRSFRTPESRSEELVKKAIEGDALRIGSGDTVKHEEAVSPFAAKLFSNITGSQRYVLIAVRHTQPATVDESRKAAIFHHDIRQAGIAMGHDEILAVGHARLEPGEQFGWREPLMLFVQIILIDKTGFHPSTCSLDAMFRLVVEWAGSRIKRMQPPHCISHDGYFLGRSKVR”, which “soluble on expression in E. coli” value is on record?
A: The value was “not soluble”.

Q: For “MQVVSSATLPPTVASADLAIVGGRSSDEDVIKYSAIQTIKQEQQQQQQQQSNTALPSYNFPFFNGMQNDFPPNRMLYNDNTMQKSENDHFTGMNLSTSASSSGNSTSSKDQSRRQFYTESSNSSGNGAAATSGSNGSSSSTESKSDVFNISMNAFAATPGSKSEDHNIPSFNMLSSYYTGALKLSNSTSFANPDPYQILGPTSKNLAHSGSGQTQLWQFLLELLSDKRYSEVITWEGTQGEFKLVDPDEVARKWGERKSKPNMNYDKMSRALRYYYDKNIMAKVHGKRYAYKFDFQGIAQALQPPTASHPQDYFNSHAMGRIAPDFSSWTSANYRSLNIAGFNNGSTIFNPSVNYSAFGATGTSNNLSAARAFPLYR”, which “soluble on expression in E. coli” value is on record?
A: The value was “not soluble”.

Q: For “GPHMDAATLTYDTLRFAEFEDFPETSEPVWILGRKYSIFTEKDEILSDVASRLWFTYRKNFPAIGGTGPTSDTGWGCMLRCGQMIFAQALVCRHLGRDWRWTQRKRQPDSYFSVLNAFIDRKDSYYSIHQIAQMGVGEGKSIGQWYGPNTVAQVLKKLAVFDTWSSLAVHIAMDNTVVMEEIRRLCRTSVPCAGATAFPADSDRHCNGFPAGAEVTNRPSPWRPLVLLIPLRLGLTDINEAYVETLKHCFMMPQSLGVIGGKPNSAHYFIGYVGEELIYLDPHTTQPAVEPTDGCFIPDESFHCQHPPCRMSIAELDPSIAVGFFCKTEDDFNDWCQQVKKLSLLGGALPMFELVEQQPSHLACPDVLNLSLDSSDVERLERFFDSEDEDFEILSL”, which “soluble on expression in E. coli” value is on record?
A: The value was “soluble”.

Q: With “MADGEAVISTVNNVEEVHGQLFEVAPRYVNLSYIGEGAYGMVASALDTITRDRVAIKKISPFEHQTFCQRTLREIKILNRFKHENIINIQEIIRSETVDSLKDIYIVQCLMETDLYKLLKTQKLSNDHVCYFLYQILRGLKYIHSANVLHRDLKPSNLLLNTTCDLKICDFGLARVTDPQTDHTGFLTEYVATRWYRAPEIMLNSKGYTKSIDVWSVGCILAEMLSNRPLFPGKHYLDQLNLILAVVGSPSNADLQCIINDKARSYLISLPHKPKQPWARLYPGADPRALDLLDKMLTFNPHNRIDIEQALAHPYLEQYYDPGDEPVCEEPFTLEMEFDDLPKEKLKELIWEEAEAHHRRMEAEAAARNNGGQNPV” as the sequence, how does the “soluble on expression in E. coli” value read?
A: Its value is “not soluble”.

Q: For “MAQNLIFITIALVAIVNAGPGEEREKGPGEHKRGGKHHGFPSFFGNVSAEGRKEIAVVFKNENLTLAQADTQIASLAEKYGFAAAYKEHKEKEAVRQAETKKNTTTVINNLSSVATKLSAIRENKDQTRKAQHEAIEALRNENGVEVDTIEFIAKRSRGFGGRHGGRKGGKGGKHFGKKNGDKKRGPHGGDEEGKKTKEAAQ”, which “soluble on expression in E. coli” value is on record?
A: The value was “not soluble”.

Q: For “MGHHHHHHSHMKTLEAHKDPHKEVVRSAEEAASVLATSISPEQCIKVLCPIIQTADYPINLAAIKMQTKVIERVSKETLNLLLPEIMPGLIQGYDNSESSVRKACVFCLVAVHAVIGDELKPHLSQLTGSKMKLLNLYIKRAQTGSGGADPTTDVSGQS”, which “soluble on expression in E. coli” value is on record?
A: Its value is “not soluble”.

Q: For “MLLNEASDAIYWVNHKGLITYANPSAQILFGYEEVELKDKSISDLIVSKTDLFSTFSSNIIEEKGVVIQQEFVRKDNSTFYGEMSVRLFDDGSHQAIIRDITKGVIEQRLLLDRERKFKILVENAFDIIIVLSSDFKIKFISPAIKKMLGYEIDSVLGENSNKFIEFRDRVMIKEVLKNHGITYAINDLKLIHKNGQIIHCEVNAVNFLNDPLINGIIVNCHDISKRIQTENELINTNYELDSFVYKVSHDLKAPLRSMLGLINLSQKENTEDTVKLYLDMMVRSIHNMDIFIKDLTQFSRNSRMEVIKESIDFKELITKIENNLKYDDNARFISFERNISQQSLFYSDPNRVETIVSNLLSNAYKYHRFDSNNPYINVKIEVSETAACIVIKDNGSGIADEYHNKIFQMFFRASEKSQGSGLGLYIVKSAIDKLEGTITLHSIPDKESTFTVEIPNLLTR”, which “soluble on expression in E. coli” value is on record?
A: The value was “not soluble”.

Q: For “MGSDKIHHHHHHMKYSLGPVLYYWPKETLEDFYQQAANCSADTIYLGEAVCSKRRATKVGDWIEMAKTLAASGKQIVLSTLALVQASSELGELKRYVDNGEFLIEASDLGVVNLCAERKLPFVAGHALNCYNAVTLRLLRKQGMVRWCMPVELSRDWLANLLTQCEELGIRNQFEVEVLSYGHLPLAYSARCFTARSEDRPKDECETCCIKYPTGRSMLSQENQQVFVLNGIQTMSGYVYNLGNELTSMHGLVDMVRLSPMGNETFAMLEAFRANENGAAPLDLTSNSDCNGYWKRLPGLVLHA”, which “soluble on expression in E. coli” value is on record?
A: Its value is “not soluble”.

Q: Which “soluble on expression in E. coli” value does the source give for “MGSDKIHHHHHHMNIKDLKYFYHLSQLQSFTKVAEKFQISQPSVSYSVKRLEEQFNCDLIVKDPSHRTFALTQQGNILKRHLERILPEISSAQKEMNRSLAHYSTLGCPPIIINYLLSLLKETNQDLAFLKRIRSIRGGSVELLEQLLQGDLDLSLIGTIEPFYHDELVIKKILHRKLYLIVSKDHLLAKRKKAIAFADVLKENFILLDEHNIHLKAFDYLNQTHQNQAQIFFKSDDVTLIKQMVSHNMGVSLLTDISLTKQDHHLVKIPFKENNKLGFYVNYAYLKSSTLTPDIRHLVDLLDKIAQSF” here?
A: The value was “not soluble”.

Q: With “MSLSIVEPDLENCFRILIATDNHIGYAEKDPVRGQDSINTFREILELARDHDVDFILLAGDLFHENRPSRTCMHQTIALLREFTLGDKPIEFELLSDPMDGSTPGFSFPAVNYEDPNINIAIPVFSIHGNHDDPQGTGPEGALCALDVLSVSGVLNYFGKSDLVADENAADNPEKGIQIRPVLLRKGTTHVALYGCGNIRDQRMYQELRANKVKMFMPTGGNVPDSEWFNILLVHQNRVRHGPQNYVPENMFDDSMRLVIWGHEHDCRITPESVADKSYFITQPGSSVATSLAPGEAIPKHVGLLSIQGSQFQLEEIPLKTVRPFELDEVVLSYAAEQGAVDLNDRDSITSFLREQVEALILQAKKEGHHHHHH” as the sequence, how does the “soluble on expression in E. coli” value read?
A: Its value is “not soluble”.

Q: For “MSEYLAAADYLPHSAPMVLVDEVIHVDDEHAHCRVAVSREGILAPFLNAQGHLPAWFGIEIIAQTIGVWSGWHGRQSLGLQEKPRPGMLLGGRGYHCQQAIFPAGSLLDVTVMLVMRDEKIGSFEGEIAIDGEKYASGRLNTYQPDDRELNILLEQGKPL”, which “soluble on expression in E. coli” value is on record?
A: Its value is “not soluble”.

Q: Which “soluble on expression in E. coli” value does the source give for “MAHHHHHHMCGSCWAFAAIGNIEGQWFLAGNPLTRLSEQMLVSCDNTNSGCGGGSSLKAFKWIVDRNNGAVYTEESYPYHSCIGIKLPCTTSGHTVGATITGHVELPQDEAQIAAWLAVNGPVAVVVDASSWIFYTGGVLTNCVSKKLDHAVLLVGYNDSATAPYWIIKNSWTTQWGEDGYIRIAKGSNQCLVKEEASSAVVGGPGATPEPTTTTTTSAPGPSPSCFVQMSCTDAACIVGCENVTLPTGQCLLTTSGASAIVTCGAETLTEEVFLTSTHCSGPSVRSSVPLNKCNRLLRGSVEFFRGSSSSGRLADVDRQRRYQPYHSRHRRL” here?
A: The value was “soluble”.
